The values below are quoted from earlier work in publication PMC5963937.

The series deals with LPL (Homo sapiens) (UniProt P06858).
UniProt P06858, sequence (P06858 28-475): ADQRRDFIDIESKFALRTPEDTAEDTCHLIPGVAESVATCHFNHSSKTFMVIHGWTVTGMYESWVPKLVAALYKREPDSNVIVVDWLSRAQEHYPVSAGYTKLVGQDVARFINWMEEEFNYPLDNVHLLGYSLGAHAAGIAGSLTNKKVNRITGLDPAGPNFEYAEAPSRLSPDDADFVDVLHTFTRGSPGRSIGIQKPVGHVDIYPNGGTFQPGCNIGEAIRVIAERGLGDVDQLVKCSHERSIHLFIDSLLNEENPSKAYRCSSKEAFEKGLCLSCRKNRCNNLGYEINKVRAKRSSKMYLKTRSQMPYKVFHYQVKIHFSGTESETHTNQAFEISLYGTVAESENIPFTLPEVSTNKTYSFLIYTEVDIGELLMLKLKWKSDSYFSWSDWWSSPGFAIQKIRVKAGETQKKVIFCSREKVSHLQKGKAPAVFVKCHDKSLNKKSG

A word on the Kd: it is a measure of binding affinity in units of concentration. Take GPIHBP1 (from UniProt Q8IV16): the Kd is 25 nM.
